{
  "source": "patent US8221992",
  "key": {"[1]": {"target": "GST-TRAM fusion protein (wild type), Q86XR7", "sequence (Q86XR7 whole entry, the tested form may be a part)": "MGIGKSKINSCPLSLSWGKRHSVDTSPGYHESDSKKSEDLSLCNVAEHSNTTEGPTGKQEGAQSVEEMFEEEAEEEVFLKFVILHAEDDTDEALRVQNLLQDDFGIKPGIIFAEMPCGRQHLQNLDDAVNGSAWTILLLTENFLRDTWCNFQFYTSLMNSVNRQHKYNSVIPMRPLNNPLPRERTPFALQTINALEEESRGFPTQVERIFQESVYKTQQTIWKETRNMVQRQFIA"}, "[2]": {"target": "Mal (MyD88 adaptor-like), P58753", "sequence (P58753 whole entry)": "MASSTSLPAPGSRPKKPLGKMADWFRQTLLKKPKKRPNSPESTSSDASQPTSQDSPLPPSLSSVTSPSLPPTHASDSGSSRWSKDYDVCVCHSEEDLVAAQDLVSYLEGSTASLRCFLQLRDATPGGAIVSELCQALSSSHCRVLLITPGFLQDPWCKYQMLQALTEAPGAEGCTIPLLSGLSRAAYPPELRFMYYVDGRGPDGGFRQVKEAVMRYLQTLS"}, "[3]": {"target": "GST-TRAM Ser16 mutant (serine 16 mutated to alanine), Q86XR7", "sequence (Q86XR7 whole entry, looked up, change not shown)": "as the sequence (Q86XR7 whole entry, the tested form may be a part) above"}},
  "data": [
    {"protein": "recombinant PKCε (rePKCε) (Calbiochem) (protein) MVVFNGLLKIKICEAVSLKPTAWSLRHAVGPRPQTFLLDPYIALNVDDSRIGQTATKQKTNSPAWHDEFVTDVCNGRKIELAVFHDAPIGYDDFVANCTIQFEELLQNGSRHFEDWIDLEPEGRVYVIIDLSGSSGEAPKDNEERVFRERMRPRKRQGAVRRRVHQVNGHKFMATYLRQPTYCSHCRDFIWGVIGKQGYQCQVCTCVVHKRCHELIITKCAGLKKQETPDQVGSQRFSVNMPHKFGIHNYKVPTFCDHCGSLLWGLLRQGLQCKVCKMNVHRRCETNVAPNCGVDARGIAKVLADLGVTPDKITNSGQRRKKLIAGAESPQPASGSSPSEEDRSKSAPTSPCDQEIKELENNIRKALSFDNRGEEHRAASSPDGQLMSPGENGEVRQGQAKRLGLDEFNFIKVLGKGSFGKVMLAELKGKDEVYAVKVLKKDVILQDDDVDCTMTEKRILALARKHPYLTQLYCCFQTKDRLFFVMEYVNGGDLMFQIQRSRKFDEPRSRFYAAEVTSALMFLHQHGVIYRDLKLDNILLDAEGHCKLADFGMCKEGILNGVTTTTFCGTPDYIAPEILQELEYGPSVDWWALGVLMYEMMAGQPPFEADNEDDLFESILHDDVLYPVWLSKEAVSILKAFMTKNPHKRLGCVASQNGEDAIKQHPFFKEIDWVLLEQKKIKPPFKPRIKTKRDVNNFDQDFTREEPVLTLVDEAIVKQINQEEFKGFSYFGEDLMP", "values": [
      {"measurement": "phosphorylation in an in-vitro kinase assay ([γ32P] ATP, autoradiography)", "setting": "[1]", "result": "recombinant PKCε (rePKCε) (Calbiochem) phosphorylated GST-TRAM"},
      {"measurement": "phosphorylation in an in-vitro kinase assay ([γ32P] ATP, autoradiography)", "setting": "[2]", "result": "rePKCε phosphorylated WT-TRAM but not Mal"}
    ]},
    {"protein": "PKCε in THP1 cell lysates (protein) MVVFNGLLKIKICEAVSLKPTAWSLRHAVGPRPQTFLLDPYIALNVDDSRIGQTATKQKTNSPAWHDEFVTDVCNGRKIELAVFHDAPIGYDDFVANCTIQFEELLQNGSRHFEDWIDLEPEGRVYVIIDLSGSSGEAPKDNEERVFRERMRPRKRQGAVRRRVHQVNGHKFMATYLRQPTYCSHCRDFIWGVIGKQGYQCQVCTCVVHKRCHELIITKCAGLKKQETPDQVGSQRFSVNMPHKFGIHNYKVPTFCDHCGSLLWGLLRQGLQCKVCKMNVHRRCETNVAPNCGVDARGIAKVLADLGVTPDKITNSGQRRKKLIAGAESPQPASGSSPSEEDRSKSAPTSPCDQEIKELENNIRKALSFDNRGEEHRAASSPDGQLMSPGENGEVRQGQAKRLGLDEFNFIKVLGKGSFGKVMLAELKGKDEVYAVKVLKKDVILQDDDVDCTMTEKRILALARKHPYLTQLYCCFQTKDRLFFVMEYVNGGDLMFQIQRSRKFDEPRSRFYAAEVTSALMFLHQHGVIYRDLKLDNILLDAEGHCKLADFGMCKEGILNGVTTTTFCGTPDYIAPEILQELEYGPSVDWWALGVLMYEMMAGQPPFEADNEDDLFESILHDDVLYPVWLSKEAVSILKAFMTKNPHKRLGCVASQNGEDAIKQHPFFKEIDWVLLEQKKIKPPFKPRIKTKRDVNNFDQDFTREEPVLTLVDEAIVKQINQEEFKGFSYFGEDLMP", "values": [
      {"measurement": "phosphorylation of GST-TRAM after pulldown from immunodepleted THP1 lysates (kinase assay)", "setting": "[1]", "result": "the removal of PKCε from the lysates abolishes the phosphorylation of TRAM"},
      {"measurement": "phosphorylation of GST-TRAM after pulldown from THP1 lysates (kinase assay)", "setting": "[3]", "result": "we mutated serine 16 to an alanine and found that the LPS dependent phosphorylation of TRAM was severally impaired"}
    ]},
    {"protein": "recombinant PKCζ (rePKCζ) (protein) MPSRTGPKMEGSGGRVRLKAHYGGDIFITSVDAATTFEELCEEVRDMCRLHQQHPLTLKWVDSEGDPCTVSSQMELEEAFRLARQCRDEGLIIHVFPSTPEQPGLPCPGEDKSIYRRGARRWRKLYRANGHLFQAKRFNRRAYCGQCSERIWGLARQGYRCINCKLLVHKRCHGLVPLTCRKHMDSVMPSQEPPVDDKNEDADLPSEETDGIAYISSSRKHDSIKDDSEDLKPVIDGMDGIKISQGLGLQDFDLIRVIGRGSYAKVLLVRLKKNDQIYAMKVVKKELVHDDEDIDWVQTEKHVFEQASSNPFLVGLHSCFQTTSRLFLVIEYVNGGDLMFHMQRQRKLPEEHARFYAAEICIALNFLHERGIIYRDLKLDNVLLDADGHIKLTDYGMCKEGLGPGDTTSTFCGTPNYIAPEILRGEEYGFSVDWWALGVLMFEMMAGRSPFDIITDNPDMNTEDYLFQVILEKPIRIPRFLSVKASHVLKGFLNKDPKERLGCRPQTGFSDIKSHAFFRSIDWDLLEKKQALPPFQPQITDDYGLDNFDTQFTSEPVQLTPDDEDAIKRIDQSEFEGFEYINPLLLSTEESV", "values": [
      {"measurement": "phosphorylation in an in-vitro kinase assay ([γ32P] ATP, autoradiography)", "setting": "[1]", "result": "Recombinant PKCζ did not phosphorylate TRAM again suggesting specificity"}
    ]},
    {"protein": "PKCζ in THP1 cell lysates (protein) MPSRTGPKMEGSGGRVRLKAHYGGDIFITSVDAATTFEELCEEVRDMCRLHQQHPLTLKWVDSEGDPCTVSSQMELEEAFRLARQCRDEGLIIHVFPSTPEQPGLPCPGEDKSIYRRGARRWRKLYRANGHLFQAKRFNRRAYCGQCSERIWGLARQGYRCINCKLLVHKRCHGLVPLTCRKHMDSVMPSQEPPVDDKNEDADLPSEETDGIAYISSSRKHDSIKDDSEDLKPVIDGMDGIKISQGLGLQDFDLIRVIGRGSYAKVLLVRLKKNDQIYAMKVVKKELVHDDEDIDWVQTEKHVFEQASSNPFLVGLHSCFQTTSRLFLVIEYVNGGDLMFHMQRQRKLPEEHARFYAAEICIALNFLHERGIIYRDLKLDNVLLDADGHIKLTDYGMCKEGLGPGDTTSTFCGTPNYIAPEILRGEEYGFSVDWWALGVLMFEMMAGRSPFDIITDNPDMNTEDYLFQVILEKPIRIPRFLSVKASHVLKGFLNKDPKERLGCRPQTGFSDIKSHAFFRSIDWDLLEKKQALPPFQPQITDDYGLDNFDTQFTSEPVQLTPDDEDAIKRIDQSEFEGFEYINPLLLSTEESV", "values": [
      {"measurement": "phosphorylation of GST-TRAM after pulldown from immunodepleted THP1 lysates (kinase assay)", "setting": "[1]", "result": "The removal of PKCζ had no effect on the phosphorylation of TRAM"}
    ]}
  ]
}
